Several values for one entry are separate records, joined by “and”; a condition that tells them apart may be missing. Equal values may be shown once.
Columns and labels:
Assay in all cases: purified protein, by the assay type
Conditions in all cases: other: pH 7.4, 20 μM (S)-adenosyl methionine
[1] = substrate: C[C@@H](N)Cc1c[nH]cn1
[2] = substrate: c1cc(Cc2cnc[nH]2)ccn1
[3] = substrate: NCCc1c[nH]cn1

B1: human HMT (Homo sapiens) (protein)
chain: MASSMRSLFSDHGKYVESFRRFLNHSTEHQCMQEFMDKKLPGIIGRIGDTKSEIKILSIGGGAGEIDLQILSKVQAQYPGVCINNEVVEPSAEQIAKYKELVAKTSNLENVKFAWHKETSSEYQSRMLEKKELQKWDFIHMIQMLYYVKDIPATLKFFHSLLGTNAKMLIIVVSGSSGWDKLWKKYGSRFPQDDLCQYITSDDLTQMLDNLGLKYECYDLLSTMDISDCFIDGNENGDLLWDFLTETCNFNATAPPDLRAELGKDLQEPEFSAKKEGKVLFNNTLSFIVIEA
Q: Which results are given for B1?
A: Km [1]: 16.26 µM; Vmax [1]: 0.56 µM/min; Vmax/Km [1]: 0.034 min⁻¹; Vmax [2]: 0.004 µM/min and 0.003 µM/min; Vmax/Km [2]: 0.0011 min⁻¹ and 0.0012 min⁻¹; Km [3]: 3.93 µM; Vmax [3]: 0.19 µM/min; Vmax/Km [3]: 0.048 min⁻¹

Reference: patent US20120129892A1, “NOVEL PHARMACEUTICALLY ACCEPTABLE SALTS OF 4-(1H-IMIDAZOL-4-[…])PYRIDINE AND THEIR THERAPEUTICAL USES” (BIOPROJET, priority 2009, published 2012)
